Test results reported in publication PMC2807882, “Conservation of DNA-binding specificity and oligomerisation properties within the p53 family”.

Columns and labels:
Conditions in all cases: protein: recombinant; tags: N-terminal 6xHis-lipoyl-TEV tag, cleaved; chain copies: 4
p73CT = biological target: T1, p73CT (Homo sapiens, UniProt O15350 104-383); assay: anisotropy competition; 25 mM NaPi, 225 mM NaCl, 10% v/v glycerol, 5 mM DTT, 0.2 mg/mL BSA, 22°C; 20 nM labelled DNA; pH not stated for the binding assay
T1 sequence: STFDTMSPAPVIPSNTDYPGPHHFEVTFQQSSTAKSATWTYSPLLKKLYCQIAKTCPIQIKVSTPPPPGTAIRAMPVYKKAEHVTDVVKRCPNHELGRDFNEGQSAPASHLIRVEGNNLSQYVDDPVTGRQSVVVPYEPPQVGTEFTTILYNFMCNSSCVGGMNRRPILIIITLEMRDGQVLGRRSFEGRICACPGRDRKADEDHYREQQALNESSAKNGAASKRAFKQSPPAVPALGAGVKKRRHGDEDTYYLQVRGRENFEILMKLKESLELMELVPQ

Dmp53 = biological target: T2, Dmp53 (Drosophila melanogaster, UniProt Q9N6D8 1-385); assay: as above
T2 sequence: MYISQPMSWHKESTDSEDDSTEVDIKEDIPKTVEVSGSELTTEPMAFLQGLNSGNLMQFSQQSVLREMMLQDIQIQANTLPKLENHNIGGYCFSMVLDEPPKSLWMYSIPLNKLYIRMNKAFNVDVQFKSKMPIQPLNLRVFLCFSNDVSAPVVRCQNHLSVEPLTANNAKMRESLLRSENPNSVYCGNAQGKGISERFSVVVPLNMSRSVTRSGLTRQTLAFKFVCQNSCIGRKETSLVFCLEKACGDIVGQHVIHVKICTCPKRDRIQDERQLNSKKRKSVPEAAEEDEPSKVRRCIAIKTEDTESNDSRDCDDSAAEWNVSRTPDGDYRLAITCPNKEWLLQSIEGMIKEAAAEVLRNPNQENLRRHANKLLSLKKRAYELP

Mmp53 [1] = biological target: T3, Mmp53 (Mus musculus, UniProt P02340 1-390); assay: as above
T3 sequence (P02340 whole entry): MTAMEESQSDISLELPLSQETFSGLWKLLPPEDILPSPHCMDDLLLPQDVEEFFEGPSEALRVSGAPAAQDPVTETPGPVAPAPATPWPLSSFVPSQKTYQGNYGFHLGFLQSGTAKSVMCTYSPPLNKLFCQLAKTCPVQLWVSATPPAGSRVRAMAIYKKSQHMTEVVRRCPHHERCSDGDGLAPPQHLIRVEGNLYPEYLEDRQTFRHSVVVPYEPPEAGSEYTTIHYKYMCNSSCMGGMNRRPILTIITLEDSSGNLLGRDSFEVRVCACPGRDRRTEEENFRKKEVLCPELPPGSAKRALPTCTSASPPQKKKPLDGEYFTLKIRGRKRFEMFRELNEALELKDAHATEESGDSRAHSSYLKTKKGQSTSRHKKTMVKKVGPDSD

ΔNp63β = biological target: T4, ΔNp63β (Homo sapiens, UniProt Q9H3D4-4 1-461); assay: fluorescence anisotropy competition titration; 25 mM sodium phosphate (purification buffer pH 7.2), 225 mM NaCl, 10% v/v glycerol, 5 mM DTT, 0.2 mg/mL BSA, 22 C
T4 sequence: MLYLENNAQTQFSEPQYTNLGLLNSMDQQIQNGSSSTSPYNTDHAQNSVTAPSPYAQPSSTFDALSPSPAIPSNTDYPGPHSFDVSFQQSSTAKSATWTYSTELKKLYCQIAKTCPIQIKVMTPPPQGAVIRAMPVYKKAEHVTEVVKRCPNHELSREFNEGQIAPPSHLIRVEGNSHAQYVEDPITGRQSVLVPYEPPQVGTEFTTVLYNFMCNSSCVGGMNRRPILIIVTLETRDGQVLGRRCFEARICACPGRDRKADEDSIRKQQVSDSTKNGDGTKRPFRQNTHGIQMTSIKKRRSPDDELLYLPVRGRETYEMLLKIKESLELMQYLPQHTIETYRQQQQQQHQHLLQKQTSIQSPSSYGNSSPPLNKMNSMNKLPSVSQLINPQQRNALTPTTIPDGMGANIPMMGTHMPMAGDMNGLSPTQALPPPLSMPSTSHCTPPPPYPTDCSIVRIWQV

ΔNp73β = biological target: T5, ΔNp73β (Homo sapiens, UniProt O15350-9 1-450); assay: as above
T5 sequence: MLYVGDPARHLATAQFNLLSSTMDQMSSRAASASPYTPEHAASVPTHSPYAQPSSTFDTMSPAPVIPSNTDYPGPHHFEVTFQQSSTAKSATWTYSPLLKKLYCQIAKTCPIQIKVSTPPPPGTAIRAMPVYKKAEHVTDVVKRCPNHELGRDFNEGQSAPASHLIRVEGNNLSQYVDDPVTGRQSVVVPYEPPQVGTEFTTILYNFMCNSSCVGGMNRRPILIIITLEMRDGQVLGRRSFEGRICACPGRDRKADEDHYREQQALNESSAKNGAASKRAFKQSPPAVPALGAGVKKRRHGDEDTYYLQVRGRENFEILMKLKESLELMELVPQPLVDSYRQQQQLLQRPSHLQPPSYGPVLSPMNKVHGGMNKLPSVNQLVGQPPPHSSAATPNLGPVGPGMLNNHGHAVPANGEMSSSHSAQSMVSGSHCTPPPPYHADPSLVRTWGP

Drp53 = biological target: T6, Drp53 (Danio rerio, UniProt P79734 1-373); assay: as above
T6 sequence: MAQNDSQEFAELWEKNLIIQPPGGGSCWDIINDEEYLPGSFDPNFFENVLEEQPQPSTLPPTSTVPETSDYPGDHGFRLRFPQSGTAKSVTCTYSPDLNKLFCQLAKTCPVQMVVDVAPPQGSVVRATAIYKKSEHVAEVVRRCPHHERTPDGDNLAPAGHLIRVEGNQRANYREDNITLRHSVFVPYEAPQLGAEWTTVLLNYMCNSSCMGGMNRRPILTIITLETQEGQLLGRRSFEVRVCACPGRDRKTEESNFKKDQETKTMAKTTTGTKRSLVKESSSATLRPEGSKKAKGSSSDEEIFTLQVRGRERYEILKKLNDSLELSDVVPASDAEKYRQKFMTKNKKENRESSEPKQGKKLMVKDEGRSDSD

Xlp53 = Xlp53 (Xenopus laevis, UniProt Q7T1D0 1-362); assay: as above
Chain of Xlp53 (Q7T1D0 entry or part of it): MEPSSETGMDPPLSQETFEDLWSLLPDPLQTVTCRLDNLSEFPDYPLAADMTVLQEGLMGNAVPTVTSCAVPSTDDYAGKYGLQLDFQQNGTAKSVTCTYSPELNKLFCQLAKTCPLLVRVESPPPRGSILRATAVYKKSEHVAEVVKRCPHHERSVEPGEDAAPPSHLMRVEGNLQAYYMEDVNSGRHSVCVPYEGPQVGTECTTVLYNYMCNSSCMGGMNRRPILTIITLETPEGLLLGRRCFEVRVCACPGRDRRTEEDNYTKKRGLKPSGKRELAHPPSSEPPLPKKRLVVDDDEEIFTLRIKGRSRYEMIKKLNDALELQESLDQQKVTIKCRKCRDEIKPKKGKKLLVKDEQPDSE

Mmp53 [2] = biological target: T3, Mmp53; assay: as above

B1: Ref competitor (dsDNA)
DNA 1: CGCGGACATGTCCGGACATGTCCCGC
DNA 2: GCGGGACATGTCCGGACATGTCCGCG
Question: With B1 as the binder, how does the Kd (p73CT) read?
Answer: -6.83 log10(M)

Question: And the Kd (Dmp53)?
Answer: -7.56 log10(M)

Question: What about the Kd (Mmp53 [1]) of the same binder?
Answer: -6.88 log10(M)

Question: What about the Kd (ΔNp63β) of the same binder?
Answer: 35.5 nM

Question: What about the Kd (ΔNp73β) of the same binder?
Answer: 24 nM

Question: And the Kd (Drp53)?
Answer: 38 nM

Question: And the Kd (Xlp53)?
Answer: 83.2 nM

Question: What about the Kd (Mmp53 [2]) of the same binder?
Answer: 132 nM
